Source: publication PMC8860610

What was measured:
[1] = molecular target: yeast nucleosome (histone octamer on 147-bp Widom 601 DNA) (Saccharomyces cerevisiae) (UniProt P04911)
[2] = molecular target: Tof1-Csm3 (full-length, CBP-tagged) (Saccharomyces cerevisiae) (UniProt P53840)
[3] = molecular target: yeast nucleosome (histone octamer on 147-bp Widom 601 DNA) (Saccharomyces cerevisiae) (UniProt P04911); remark: listed apart in the source
[4] = molecular target: yeast nucleosome (histone octamer on 147-bp Widom 601 DNA) (Saccharomyces cerevisiae) (UniProt P04911); remark: listed apart in the source

Chain of yeast nucleosome (histone octamer on 147-bp Widom 601 DNA) (Saccharomyces cerevisiae) (P04911 whole entry, chain 1 of 4, other chains not shown): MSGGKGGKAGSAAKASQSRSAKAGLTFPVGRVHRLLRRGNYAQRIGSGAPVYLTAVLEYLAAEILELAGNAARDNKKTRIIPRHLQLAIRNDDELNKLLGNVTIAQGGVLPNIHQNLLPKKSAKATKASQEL
Chain of yeast nucleosome (histone octamer on 147-bp Widom 601 DNA) (Saccharomyces cerevisiae) (P02293 whole entry, chain 2 of 4, other chains not shown, further chain): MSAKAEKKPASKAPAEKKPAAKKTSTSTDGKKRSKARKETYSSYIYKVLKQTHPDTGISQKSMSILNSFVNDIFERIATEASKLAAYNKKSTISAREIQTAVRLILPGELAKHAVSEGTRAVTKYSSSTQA
Chain of Tof1-Csm3 (full-length, CBP-tagged) (Saccharomyces cerevisiae) (P53840 whole entry, chain 1 of 2): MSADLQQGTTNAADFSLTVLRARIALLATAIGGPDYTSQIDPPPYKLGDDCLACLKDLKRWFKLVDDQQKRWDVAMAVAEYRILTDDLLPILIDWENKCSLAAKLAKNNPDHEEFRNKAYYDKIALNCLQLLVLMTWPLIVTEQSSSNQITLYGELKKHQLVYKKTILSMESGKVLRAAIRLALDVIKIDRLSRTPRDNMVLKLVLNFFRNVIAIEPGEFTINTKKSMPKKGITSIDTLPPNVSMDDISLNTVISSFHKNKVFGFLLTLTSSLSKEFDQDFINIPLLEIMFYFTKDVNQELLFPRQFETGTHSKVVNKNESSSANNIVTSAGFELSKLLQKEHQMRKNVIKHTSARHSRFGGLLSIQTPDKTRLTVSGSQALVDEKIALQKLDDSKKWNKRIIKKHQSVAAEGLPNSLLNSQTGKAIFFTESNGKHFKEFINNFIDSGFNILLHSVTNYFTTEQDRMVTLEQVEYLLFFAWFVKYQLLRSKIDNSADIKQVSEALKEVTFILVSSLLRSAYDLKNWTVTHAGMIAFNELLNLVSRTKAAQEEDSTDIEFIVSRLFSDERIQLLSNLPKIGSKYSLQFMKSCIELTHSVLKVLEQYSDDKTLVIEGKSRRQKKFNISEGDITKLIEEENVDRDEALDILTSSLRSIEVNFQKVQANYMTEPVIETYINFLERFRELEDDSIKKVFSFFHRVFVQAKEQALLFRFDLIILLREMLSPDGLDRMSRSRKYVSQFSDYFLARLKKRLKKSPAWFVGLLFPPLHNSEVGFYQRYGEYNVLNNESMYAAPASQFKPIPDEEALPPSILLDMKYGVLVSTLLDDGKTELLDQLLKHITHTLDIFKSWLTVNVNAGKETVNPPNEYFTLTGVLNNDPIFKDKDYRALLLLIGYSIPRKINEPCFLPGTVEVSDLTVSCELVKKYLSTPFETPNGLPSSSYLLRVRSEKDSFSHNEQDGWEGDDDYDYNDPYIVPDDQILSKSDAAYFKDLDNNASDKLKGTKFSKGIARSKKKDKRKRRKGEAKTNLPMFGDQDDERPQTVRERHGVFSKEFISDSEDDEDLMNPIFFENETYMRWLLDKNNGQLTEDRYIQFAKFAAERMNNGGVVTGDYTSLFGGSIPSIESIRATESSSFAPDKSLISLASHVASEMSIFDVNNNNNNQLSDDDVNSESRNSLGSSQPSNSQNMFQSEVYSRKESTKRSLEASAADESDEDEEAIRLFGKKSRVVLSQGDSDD
Chain of Tof1-Csm3 (full-length, CBP-tagged) (Saccharomyces cerevisiae) (Q04659 whole entry, chain 2 of 2, further chain): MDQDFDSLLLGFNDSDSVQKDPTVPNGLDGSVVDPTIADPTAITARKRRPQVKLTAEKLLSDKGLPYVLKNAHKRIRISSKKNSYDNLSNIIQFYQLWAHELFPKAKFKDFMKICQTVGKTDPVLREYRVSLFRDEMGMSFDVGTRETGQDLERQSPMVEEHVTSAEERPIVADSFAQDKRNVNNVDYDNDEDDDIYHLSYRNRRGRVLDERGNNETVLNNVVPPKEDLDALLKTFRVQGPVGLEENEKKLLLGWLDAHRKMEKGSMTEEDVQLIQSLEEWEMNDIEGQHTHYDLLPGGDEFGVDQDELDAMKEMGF

Substance | nucleosome reorganization, loss of FRET (%), with Nhp6 [1] [%] | decrease in in vitro chromatin replication (leading-strand length), 50 nM SΔN-P against 50 nM fl FACT, 20 nM fl Tof1-Csm3; restored by 4- and 8-fold excess of SΔN-P [2] [%] | nucleosome reorganization, loss of FRET (%) of Cy3/Cy5-labelled nucleosomal DNA, FACT together with Nhp6 (yFACT); nucleosome alone 9.23 [3] [%] | nucleosome reorganization, loss of FRET (%) of Cy3/Cy5-labelled nucleosomal DNA, FACT without Nhp6; nucleosome alone 9.23 [3] [%] | reduction of the nucleosome reorganization activity of yFACT (single-molecule FRET) when Tof1-Csm3 is added [4] [%]
S-PΔC (FACT lacking the C-terminus of Pob3) (from UniProt P32558 1-1035; Q04636 1-552) (complex) | 63 |  |  |  | 
SΔC-P (FACT lacking the C-terminus of Spt16) (from UniProt P32558 1-1035; Q04636 1-552) (complex) | 46.8 |  |  |  | 
SΔN-P (FACT lacking the N-terminus of Spt16) (from UniProt P32558 1-1035; Q04636 1-552) (complex) | 65 | 58 |  |  | 
full-length (fl) FACT (Spt16-Pob3) (from UniProt P32558 1-1035; Q04636 1-552) (complex) |  |  | 72.1 | 10.5 | 53
